Data published in paper PMC7836013, “Characterization of Formononetin Sulfonation in SULT1A3 Overexpressing HKE293 Cells: Involvement of Multidrug Resistance-Associated Protein 4 in Excretion of Sulfate” (Frontiers in Pharmacology, 2021).

What was measured:
[1] = substrate: COc1ccc(-c2coc3cc(O)ccc3c2=O)cc1; test: Formononetin sulfonation enzyme kinetics in HEK-SULT1A3 cell lysate; type: in vitro ADME, human; settings: other: HEK-SULT1A3 cell lysate, Michaelis-Menten, mean ± SD (n = 3); pH 7.4
Procedure: (§1) Enzyme kinetic of formononetin incubated with recombinant human SULT1A3 enzyme (rSULT1A3) was evaluated. The reaction was activated after the coenzyme PAPS (which provides sulfonate group to the substrates) was added. The incubation reaction was conducted in 200 μL potassium phosphate buffer (50 mM, pH 7.4) at 37°C, containing SULT1A3 enzyme (0.1 mg/ml), formononetin (0.16–40 μM), and PAPS (a final concentration of 0.10 mM). After incubation for 120 min, the reaction was terminated by adding 100 μL ice-cold acetonitrile. Then the samples were vortexed and centrifuged at 15,000 g for 15 min. The supernatant was analyzed by HPLC for sulfate quantification. All incubations were performed in triplicate. Preliminary experiments were performed to ensure that the rates of sulfation were determined under linear conditions with respect to incubation time and protein concentration.
The sulfonation rates of formononetin at different concentrations were determined according to the sulfonation assay protocol. The kinetic model Michaelis-Menten (Eq. 1) was fitted to the data of sulfonation rates vs. formononetin concentrations. […] The intrinsic clearance (CLint) was calculated by Vmax/Km.
Quantification of formononetin sulfate was performed using Agilent 1,260 Infinity II HPLC system with a ZORBAX SB-C18 column (4.6 × 250 mm, 5 μm; Agilent). […] The samples were analyzed using a gradient of ammonium acetate (2.5 mM) in water (mobile phase A) vs. acetonitrile (mobile phase B) at a flow rate of 1.0 ml/min. […]
HEK293 cells were stably transfected with the cDNA of Human SULT1A3 enzyme through the lentiviral transduction approach ([Sun et al., 2015]), which were named as HEK-SULT1A3 cells. The transduction efficiency was evaluated by measuring the SULT1A3 protein levels in both control and transfected cells. The enzyme function of HEK-SULT1A3 cells was further determined using sulfonation assay. […] Then, in order to identify the function of HEK-SULT1A3 cells in sulfate generation, formononetin was incubated with the HEK-SULT1A3 cell lysate and enzyme kinetic was determined as described above.

[2] = substrate: COc1ccc(-c2coc3cc(O)ccc3c2=O)cc1; test: Formononetin sulfonation enzyme kinetics in recombinant human SULT1A3; type: in vitro ADME; settings: other: rSULT1A3, Michaelis-Menten, mean ± SD (n = 3); pH 7.4
Procedure: as §1
The sulfonation rates of formononetin at different concentrations were determined according to the sulfonation assay protocol. The kinetic model Michaelis-Menten (Eq. 1) was fitted to the data of sulfonation rates vs. formononetin concentrations. Model selection was based on visual inspection of the Eadie-Hofstee plot. […] Model fitting and kinetic parameters evaluation were performed using GraphPad Prism software (5.3 version). V=Vmax·[S]/Km+[S] (1) where Vmax is the maximal velocity and Km is the Michaelis constant. The intrinsic clearance (CLint) was calculated by Vmax/Km.
Quantification of formononetin sulfate was performed using Agilent 1,260 Infinity II HPLC system with a ZORBAX SB-C18 column (4.6 × 250 mm, 5 μm; Agilent). The temperature of the column was set at 40 °C. The samples were analyzed using a gradient of ammonium acetate (2.5 mM) in water (mobile phase A) vs. acetonitrile (mobile phase B) at a flow rate of 1.0 ml/min. The gradient elution condition was 15% B at 0–2.0 min, 15–95% B at 2.0–12 min, 95% B at 12–15 min, and 95–15% B at 15–18 min. The waiting time was 7.0 min at 15% B in order to ensure the column pressure is back to a stable state before the next injection. […]

Protein | Km [1] [µM] | Vmax [1] [pmol/min/mg] | Vmax/Km [1] [µL/min/mg] | Km [2] [µM] | Vmax [2] [pmol/min/mg] | Vmax/Km [2] [µL/min/mg]
HEK-SULT1A3 cell lysate (Homo sapiens) (protein, expressed in transfected cells; cell lysate used) MELIQDTSRPPLEYVKGVPLIKYFAEALGPLQSFQARPDDLLINTYPKSGTTWVSQILDMIYQGGDLEKCNRAPIYVRVPFLEVNDPGEPSGLETLKDTPPPRLIKSHLPLALLPQTLLDQKVKVVYVARNPKDVAVSYYHFHRMEKAHPEPGTWDSFLEKFMAGEVSYGSWYQHVQEWWELSRTHPVLYLFYEDMKENPKREIQKILEFVGRSLPEETMDFMVQHTSFKEMKKNPMTNYTTVPQELMDHSISPFMRKGMAGDWKTTFTVAQNERFDADYAEKMAGCSLSFRSEL | 6.17 | 13.94 | 2.26 ± 0.42 |  |  | 
Recombinant human SULT1A3 enzymes (rSULT1A3) (Homo sapiens) (protein, purchased Sekisui XenoTech LCC (Kansas, USA)) MELIQDTSRPPLEYVKGVPLIKYFAEALGPLQSFQARPDDLLINTYPKSGTTWVSQILDMIYQGGDLEKCNRAPIYVRVPFLEVNDPGEPSGLETLKDTPPPRLIKSHLPLALLPQTLLDQKVKVVYVARNPKDVAVSYYHFHRMEKAHPEPGTWDSFLEKFMAGEVSYGSWYQHVQEWWELSRTHPVLYLFYEDMKENPKREIQKILEFVGRSLPEETMDFMVQHTSFKEMKKNPMTNYTTVPQELMDHSISPFMRKGMAGDWKTTFTVAQNERFDADYAEKMAGCSLSFRSEL |  |  |  | 6.01 ± 0.97 | 145.30 ± 7.91 | 24.18 ± 4.13
